Results on 5 proteins are retold here after article PMC4945389.

The nature of data set [1]: surface biotinylation, HEK293. The following applies: glycan changed form; control: UT-A3 alone.
A short description of data set [2]: cycloheximide chase 12 h, Western blot, HEK293. The following applies: glycan changed form; control: UT-A3 alone. (In western blotting, separated proteins are transferred to a membrane and probed.)
Data set [3] can be described thus: surface biotinylation, Xenopus oocytes.
Data set [4] in a line: FSK-stimulated surface biotinylation, HEK293. Particulars: glycan lost; control: wild type.
The nature of data set [5]: FSK-stimulated total UT-A3, Western blot, HEK293. The following applies: glycan lost; control: wild type.
[6] abbreviates: glycan lost, control: wild type UT-A3, untreated.

B1: UT-A3: ST6GalI co-transfection (protein)
parent chain: MSDHPLKEMSDNNRSPPLPEPLSSRYKLYESELSSPTWPSSSQDTHPALPLLEMPEEKDLRSSDEDSHIVKIEKPNERSKRRESELPRRASAGRGAFSLFQAVSYLTGDMKECKNWLKDKPLVLQFLDWVLRGAAQVMFVNNPLSGLIIFIGLLIQNPWWTIAGALGTVVSTLAALALSQDRSAIASGLHGYNGMLVGLLVAVFSEKLDYYWWLLFPVTFASMACPVISSALSTVFAKWDLPVFTLPFNIALTLYLAATGHYNLFFPTTLVKPASSAPNITWSEIEMPLLLQTIPVGVGQVYGCDNPWTGGVILVALFISSPLICLHAAIGSIVGLLAALTVATPFETIYTGLWSYNCVLSCVAIGGMFYVLTWQTHLLALVCALFCAYTGAALSNMMAVVGVPPGTWAFCLSTLTFLLLTSNNPGIHKLPLSKVTYPEANRIYFLTAKRSDEQKPPNGG
Take B1: the localisation_or_trafficking entry in data set [1] was “increases”. Moreover, the degradation_or_half_life result in data set [2] was “increases”.

B2: UT-A3: N279Q (protein)
parent chain: MSDHPLKEMSDNNRSPPLPEPLSSRYKLYESELSSPTWPSSSQDTHPALPLLEMPEEKDLRSSDEDSHIVKIEKPNERSKRRESELPRRASAGRGAFSLFQAVSYLTGDMKECKNWLKDKPLVLQFLDWVLRGAAQVMFVNNPLSGLIIFIGLLIQNPWWTIAGALGTVVSTLAALALSQDRSAIASGLHGYNGMLVGLLVAVFSEKLDYYWWLLFPVTFASMACPVISSALSTVFAKWDLPVFTLPFNIALTLYLAATGHYNLFFPTTLVKPASSAPNITWSEIEMPLLLQTIPVGVGQVYGCDNPWTGGVILVALFISSPLICLHAAIGSIVGLLAALTVATPFETIYTGLWSYNCVLSCVAIGGMFYVLTWQTHLLALVCALFCAYTGAALSNMMAVVGVPPGTWAFCLSTLTFLLLTSNNPGIHKLPLSKVTYPEANRIYFLTAKRSDEQKPPNGG
Consider B2, for which, in data set [3] (setting [6]), the localisation_or_trafficking entry is “decreases”. Also, the “localisation_or_trafficking, other: % increase by FSK” value in data set [4] was “decreases”. In data set [5], the “expression_or_secretion, other: % increase by FSK” value is “decreases”.

B3: UT-A3: tunicamycin (protein)
parent chain: MSDHPLKEMSDNNRSPPLPEPLSSRYKLYESELSSPTWPSSSQDTHPALPLLEMPEEKDLRSSDEDSHIVKIEKPNERSKRRESELPRRASAGRGAFSLFQAVSYLTGDMKECKNWLKDKPLVLQFLDWVLRGAAQVMFVNNPLSGLIIFIGLLIQNPWWTIAGALGTVVSTLAALALSQDRSAIASGLHGYNGMLVGLLVAVFSEKLDYYWWLLFPVTFASMACPVISSALSTVFAKWDLPVFTLPFNIALTLYLAATGHYNLFFPTTLVKPASSAPNITWSEIEMPLLLQTIPVGVGQVYGCDNPWTGGVILVALFISSPLICLHAAIGSIVGLLAALTVATPFETIYTGLWSYNCVLSCVAIGGMFYVLTWQTHLLALVCALFCAYTGAALSNMMAVVGVPPGTWAFCLSTLTFLLLTSNNPGIHKLPLSKVTYPEANRIYFLTAKRSDEQKPPNGG
Regarding B3, the localisation_or_trafficking entry in data set [3] (setting [6]) is listed as “decreases”.

B4: UT-A3: ST6GalI cRNA co-injection (protein)
parent chain: MSDHPLKEMSDNNRSPPLPEPLSSRYKLYESELSSPTWPSSSQDTHPALPLLEMPEEKDLRSSDEDSHIVKIEKPNERSKRRESELPRRASAGRGAFSLFQAVSYLTGDMKECKNWLKDKPLVLQFLDWVLRGAAQVMFVNNPLSGLIIFIGLLIQNPWWTIAGALGTVVSTLAALALSQDRSAIASGLHGYNGMLVGLLVAVFSEKLDYYWWLLFPVTFASMACPVISSALSTVFAKWDLPVFTLPFNIALTLYLAATGHYNLFFPTTLVKPASSAPNITWSEIEMPLLLQTIPVGVGQVYGCDNPWTGGVILVALFISSPLICLHAAIGSIVGLLAALTVATPFETIYTGLWSYNCVLSCVAIGGMFYVLTWQTHLLALVCALFCAYTGAALSNMMAVVGVPPGTWAFCLSTLTFLLLTSNNPGIHKLPLSKVTYPEANRIYFLTAKRSDEQKPPNGG
With B4, in data set [3] (glycan changed form, control: UT-A3 cRNA alone), the localisation_or_trafficking entry is given as “increases”.

B5: UT-A3: ST3GalIV co-transfection (protein)
parent chain: MSDHPLKEMSDNNRSPPLPEPLSSRYKLYESELSSPTWPSSSQDTHPALPLLEMPEEKDLRSSDEDSHIVKIEKPNERSKRRESELPRRASAGRGAFSLFQAVSYLTGDMKECKNWLKDKPLVLQFLDWVLRGAAQVMFVNNPLSGLIIFIGLLIQNPWWTIAGALGTVVSTLAALALSQDRSAIASGLHGYNGMLVGLLVAVFSEKLDYYWWLLFPVTFASMACPVISSALSTVFAKWDLPVFTLPFNIALTLYLAATGHYNLFFPTTLVKPASSAPNITWSEIEMPLLLQTIPVGVGQVYGCDNPWTGGVILVALFISSPLICLHAAIGSIVGLLAALTVATPFETIYTGLWSYNCVLSCVAIGGMFYVLTWQTHLLALVCALFCAYTGAALSNMMAVVGVPPGTWAFCLSTLTFLLLTSNNPGIHKLPLSKVTYPEANRIYFLTAKRSDEQKPPNGG
In the case of B5, the localisation_or_trafficking entry in data set [1] is reported as “no change”.
